Laboratory results reported in paper PMC12409352.

Target: BrxU, untagged (GmrSD-family Type IV restriction enzyme from Escherichia fergusonii) (Escherichia fergusonii)

IPI* (mature, active form of phage T4 internal protein I, product of ip1) (natural protein)
in vitro digestion of glc-5mdC pUC19 DNA by untagged BrxU (1 mM ATP) after incubation with a titration of IPI*; excess of IPI* sufficient for robust inhibition: 30 fold excess
